Laboratory results from publication PMC3089514 (The Journal of Biological Chemistry, 2011).
Changes are numbered by the printed parent chain. Names and notes keep the numbering of the source.

T1: EGFP-tagged human orexin receptor 1 (human, UniProt O43613 1-425)
T1 sequence (looked up): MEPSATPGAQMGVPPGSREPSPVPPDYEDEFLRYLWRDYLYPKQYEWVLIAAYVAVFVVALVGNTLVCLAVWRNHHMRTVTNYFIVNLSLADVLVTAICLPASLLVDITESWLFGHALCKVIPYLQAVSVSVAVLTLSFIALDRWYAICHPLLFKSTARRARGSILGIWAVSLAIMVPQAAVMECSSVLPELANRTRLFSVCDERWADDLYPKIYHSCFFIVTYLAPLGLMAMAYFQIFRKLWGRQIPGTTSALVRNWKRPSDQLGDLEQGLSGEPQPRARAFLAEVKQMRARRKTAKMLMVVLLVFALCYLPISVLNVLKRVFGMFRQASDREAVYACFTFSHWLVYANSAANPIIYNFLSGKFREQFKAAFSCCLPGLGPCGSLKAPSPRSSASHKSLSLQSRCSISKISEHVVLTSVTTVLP

T2: EGFP-tagged human orexin receptor 2 (human, UniProt O43614 1-444)
T2 sequence (looked up): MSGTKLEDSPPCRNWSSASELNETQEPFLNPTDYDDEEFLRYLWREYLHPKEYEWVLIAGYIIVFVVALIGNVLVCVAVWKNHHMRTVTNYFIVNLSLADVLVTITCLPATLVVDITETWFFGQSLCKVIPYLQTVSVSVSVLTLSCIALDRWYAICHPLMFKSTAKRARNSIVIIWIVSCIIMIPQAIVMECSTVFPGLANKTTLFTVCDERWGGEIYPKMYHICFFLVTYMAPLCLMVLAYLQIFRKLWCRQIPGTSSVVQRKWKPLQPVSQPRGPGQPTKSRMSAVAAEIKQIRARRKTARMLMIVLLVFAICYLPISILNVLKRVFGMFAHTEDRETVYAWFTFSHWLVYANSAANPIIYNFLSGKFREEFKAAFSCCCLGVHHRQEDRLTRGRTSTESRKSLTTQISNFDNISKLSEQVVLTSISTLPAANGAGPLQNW

B1: Rluc-tagged β-arrestin 1 wild type (natural protein, UniProt P17870 1-418, looked up)
chain: MGDKGTRVFKKASPNGKLTVYLGKRDFVDHIDLVEPVDGVVLVDPEYLKERRVYVTLTCAFRYGREDLDVLGLTFRKDLFVANVQSFPPAPEDKKPLTRLQERLIKKLGEHAYPFTFEIPPNLPCSVTLQPGPEDTGKACGVDYEVKAFCAENLEEKIHKRNSVRLVIRKVQYAPERPGPQPTAETTRQFLMSDKPLHLEASLDKEIYYHGEPISVNVHVTNNTNKTVKKIKISVRQYADICLFNTAQYKCPVAMEEADDTVAPSSTFCKVYTLTPFLANNREKRGLALDGKLKHEDTNLASSTLLREGANREILGIIVSYKVKVKLVVSRGGLLGDLASSDVAVELPFTLMHPKPKEEPPHREVPEHETPVDTNLIELDTNDDDIVFEDFARQRLKGMKDDKEEEEDGTGSPRLNDR
B2: Rluc-tagged phosphorylation-independent β-arrestin 1 mutant R169E (natural protein, UniProt P17870 1-418, looked up)
chain: B1 chain with R169E
B3: Rluc-tagged β-arrestin 2 wild type (natural protein, UniProt P32120 1-420, looked up)
chain: MGEKPGTRVFKKSSPNCKLTVYLGKRDFVDHLDKVDPVDGVVLVDPDYLKDRKVFVTLTCAFRYGREDLDVLGLSFRKDLFIANYQAFPPTPNPPRPPTRLQERLLRKLGQHAHPFFFTIPQNLPCSVTLQPGPEDTGKACGVDFEIRAFCAKSLEEKSHKRNSVRLVIRKVQFAPEKPGPQPSAETTRHFLMSDRSLHLEASLDKELYYHGEPLNVNVHVTNNSTKTVKKIKVSVRQYADICLFSTAQYKCPVAQVEQDDQVSPSSTFCKVYTITPLLSNNREKRGLALDGKLKHEDTNLASSTIVKEGANKEVLGILVSYRVKVKLVVSRGGDVSVELPFVLMHPKPHDHIALPRPQSAATHPPTLLPSAVPETDAPVDTNLIEFETNYATDDDIVFEDFARLRLKGLKDEDYDDQFC
B4: Rluc-tagged phosphorylation-independent β-arrestin 2 mutant R170E (natural protein, UniProt P32120 1-420, looked up)
chain: B3 chain with R170E

biological target: T1, EGFP-tagged human orexin receptor 1; assay: FRET or BRET

| EC50 of the agonist OxA for receptor-β-arrestin BRET [nM] | Binder |
| --- | --- |
| 777 | B1 |
| 412 | B2 |
| 719 | B3 |
| 401 | B4 |

biological target: T2, EGFP-tagged human orexin receptor 2; assay: FRET or BRET

| EC50 of the agonist OxA for receptor-β-arrestin BRET [nM] | Binder |
| --- | --- |
| 376 | B1 |
| 139 | B2 |
| 215 | B3 |
| 162 | B4 |

biological target: T1, EGFP-tagged human orexin receptor 1; assay: FRET or BRET; remark: another data set of the same source

| EC50 of the agonist OxB for receptor-β-arrestin BRET [nM] | Binder |
| --- | --- |
| 3770 | B2 |
| 3790 | B4 |

biological target: T2, EGFP-tagged human orexin receptor 2; assay: FRET or BRET; remark: another data set of the same source

| EC50 of the agonist OxB for receptor-β-arrestin BRET [nM] | Binder |
| --- | --- |
| 334 | B1 |
| 228 | B2 |
| 384 | B3 |
| 278 | B4 |
